{"source": "paper PMC2936275", "about": "(Biochemistry, 2010)", "target": "ONE-GC fragment aa 836-1110 (UniProt P51839 836-1110)", "sequence (P51839 836-1110)": "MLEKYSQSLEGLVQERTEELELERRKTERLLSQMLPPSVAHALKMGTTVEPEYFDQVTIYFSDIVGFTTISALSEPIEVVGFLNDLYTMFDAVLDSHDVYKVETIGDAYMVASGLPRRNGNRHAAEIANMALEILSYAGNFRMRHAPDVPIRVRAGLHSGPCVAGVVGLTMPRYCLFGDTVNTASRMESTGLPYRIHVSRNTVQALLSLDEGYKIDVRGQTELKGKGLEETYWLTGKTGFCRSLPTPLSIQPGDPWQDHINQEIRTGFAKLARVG", "assay": "SPR", "note": "Where “and” joins values, the source holds several entries; their conditions need not be identical. Equal values may be shown once."}
{"binder": "GCAP1 (guanylate cyclase activating protein 1), purified recombinant (natural protein, UniProt P46065 1-205, looked up) MGNIMDGKSVEELSSTECHQWYKKFMTECPSGQLTLYEFRQFFGLKNLSPWASQYVEQMFETFDFNKDGYIDFMEYVAALSLVLKGKVEQKLRWYFKLYDVDGNGCIDRDELLTIIRAIRAINPCSDSTMTAEEFTDTVFSKIDVNGDGELSLEEFMEGVQKDQMLLDTLTRSLDLTRIVRRLQNGEQDEEGASGRETEAAEADG", "values": [{"measurement": "EC50", "result": 500, "unit": "nM"}, {"measurement": "Kd", "result": "650 nM and 670 nM"}]}
